The target of the test is biotinylated human DLL3 protein expressed as a human IgG1 fusion protein (human) (UniProt Q9NYJ7). In words: Octet BLI; biotinylated huDLL3-IgG1 fusion on streptavidin tips; single 50 nM; conditioned medium. A general note: BLI is a label-free optical method that tracks binding on a fibre tip over time.

Residue numbers refer to the chain shown, from its start.

Chain of biotinylated human DLL3 protein expressed as a human IgG1 fusion protein (human) (Q9NYJ7 other isoform, or with tags, fused parts or gaps): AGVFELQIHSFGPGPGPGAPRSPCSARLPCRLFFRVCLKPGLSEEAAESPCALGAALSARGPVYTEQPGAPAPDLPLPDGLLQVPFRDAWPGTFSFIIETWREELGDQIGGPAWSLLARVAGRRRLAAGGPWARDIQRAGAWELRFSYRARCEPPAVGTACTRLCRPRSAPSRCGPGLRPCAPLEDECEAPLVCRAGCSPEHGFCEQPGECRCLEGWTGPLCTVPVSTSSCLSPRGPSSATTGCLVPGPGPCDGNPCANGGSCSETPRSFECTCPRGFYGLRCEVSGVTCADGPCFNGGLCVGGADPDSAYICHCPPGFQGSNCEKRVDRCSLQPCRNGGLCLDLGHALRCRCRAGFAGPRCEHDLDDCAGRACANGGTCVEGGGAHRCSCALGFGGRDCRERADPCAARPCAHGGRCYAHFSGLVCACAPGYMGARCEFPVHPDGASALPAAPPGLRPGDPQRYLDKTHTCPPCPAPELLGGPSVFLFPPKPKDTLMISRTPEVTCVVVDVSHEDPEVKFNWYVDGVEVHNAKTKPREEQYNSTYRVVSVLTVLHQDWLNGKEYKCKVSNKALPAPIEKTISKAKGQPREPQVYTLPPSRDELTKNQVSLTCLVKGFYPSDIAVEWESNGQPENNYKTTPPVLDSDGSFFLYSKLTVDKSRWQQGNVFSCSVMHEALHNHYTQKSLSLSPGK

B1: anti-DLL3 trispecific protein 2H07 (protein, part only; not given: anti-CD3 fragment and anti-albumin sdAb, part only)
chain, part: EVQLVESGGGLVQPGGSLTLSCVASGSTSSINAVGWYRRAPGKQRELVAGISSDGSTVYADSVKGRFTISRDNAKNSVYLQMNSLRAEDTAVYYCYYFRTVSGHSMRYWGQGTLVTVSSGGGGSGGGSGGGGSGGGSHHHHHH
The molecule B1 gave a Kd of 6.1 nM.

B2: anti-DLL3 trispecific protein 2B02 (protein, part only; not given: CD3 binder and albumin binder, part only)
chain, part: B1 chain, part with V34M, G35A, T57K, V101K, H104S
Take B2: the Kd came out at 6.6 nM. This Kd and that of the molecule before are within 1.5-fold of each other.

B3: anti-DLL3 trispecific protein 1H011 (protein, part only; not given: anti-CD3 and anti-albumin domains, part only)
chain, part: B1 chain, part with V34I, T57K, A60N, V101Q, H104S
For the molecule B3, the Kd was 6.2 nM.

B4: anti-DLL3 trispecific protein 2D03 (protein, part only; not given: anti-CD3 and anti-albumin domains, part only)
chain, part: B1 chain, part with S27K, V34M, T57K, H104V
Molecule B4 showed a Kd of 6.8 nM.

B5: anti-DLL3 trispecific protein 1A010 (protein, part only; not given: anti-CD3 fragment and anti-albumin domain, part only)
chain, part: B1 chain, part with V34Y, T57K, S102Y, H104S
The molecule B5 yielded an equilibrium dissociation constant (Kd) of 6.5 nM.

B6: anti-DLL3 trispecific protein 1G01 (protein, part only; not given: CD3 binder and albumin binder, part only)
chain, part: B1 chain, part with V34M, G35A, T57K, D61E, H104A
In turn, B6 registered a Kd of 6.6 nM.

B7: anti-DLL3 trispecific protein 1C02 (protein, part only; not given: anti-CD3 fragment and anti-albumin sdAb, part only)
chain, part: B1 chain, part with V34M, G35A, T57K, A60S, H104S, Y108S
Take B7: the Kd came to 6.2 nM. The Kd values of the last two molecules are within 1.5-fold of each other.

B8: anti-DLL3 trispecific protein 2G07 (protein, part only; not given: anti-CD3 and anti-albumin domains, part only)
chain, part: B1 chain, part with V34M, G35A, T57K, S102Q, H104S
Molecule B8 yielded a Kd of 6.5 nM.

B9: anti-DLL3 trispecific protein 1A01 (protein, part only; not given: anti-CD3 and anti-albumin domains, part only)
chain, part: B1 chain, part with S27F, V34M, T57F, T100H, H104S
With B9, the Kd turned out to be 7 nM.

B10: anti-DLL3 trispecific protein 1C07 (protein, part only; not given: anti-CD3 fragment and anti-albumin sdAb, part only)
chain, part: B1 chain, part with V34M, G35A, T57K, H104S
Regarding B10, the Kd amounted to 7.1 nM.

B11: anti-DLL3 trispecific protein 1G011 (protein, part only; not given: CD3 binder and albumin binder, part only)
chain, part: B1 chain, part with V34M, G35A, T57K, R99K, H104S
Consider B11, for which the Kd came out at 6.8 nM.

B12: anti-DLL3 trispecific protein 1B010 (protein, part only; not given: CD3 fragment and albumin sdAb, part only)
chain, part: B1 chain, part with S30R, V34M, T57K, V101K, H104S
In turn, B12 registered a Kd of 6.8 nM.

B13: anti-DLL3 trispecific protein 1E07 (protein, part only; not given: anti-CD3 fragment and anti-albumin sdAb, part only)
chain, part: B1 chain, part with V34M, G35A, T57K, A60N, S102R, H104S, M106Q
The molecule B13 displayed a Kd of 7.1 nM. This Kd and that of the molecule before are within 1.5-fold of each other.

B14: anti-DLL3 trispecific protein 2D04 (protein, part only; not given: CD3 binder and albumin binder, part only)
chain, part: B1 chain, part with T57K, A60R, S102Q, H104S
Take B14: the Kd came out at 6.2 nM.

B15: anti-DLL3 trispecific protein 2H010 (protein, part only; not given: CD3 fragment and albumin sdAb, part only)
chain, part: B1 chain, part with V34M, V48A, T57K, V58L, H104S
With B15, the Kd is 6.4 nM.

B16: anti-DLL3 trispecific protein 1F010 (protein, part only; not given: anti-CD3 fragment and anti-albumin sdAb, part only)
chain, part: B1 chain, part with S30R, V34M, T57K, A60K, H104S
In the case of B16, the Kd was determined as 6.3 nM.

B17: anti-DLL3 trispecific protein 1D06 (protein, part only; not given: anti-CD3 fragment and anti-albumin sdAb, part only)
chain, part: B1 chain, part with V34M, G55N, T57K, S102H, H104S
As to B17, the Kd came to 6.8 nM.

B18: anti-DLL3 trispecific protein 2F09 (protein, part only; not given: anti-CD3 fragment and anti-albumin domain, part only)
chain, part: B1 chain, part with V34M, G35A, T57K, V58L, H104S
In turn, B18 came in with a Kd of 6.5 nM.

B19: anti-DLL3 trispecific protein 1E02 (protein, part only; not given: anti-CD3 fragment and anti-albumin sdAb, part only)
chain, part: B1 chain, part with S27Q, V34M, T57Q, V101K, H104S
B19 showed a Kd of 7 nM.

B20: anti-DLL3 trispecific protein 2D06 (protein, part only; not given: anti-CD3 and anti-albumin domains, part only)
chain, part: B1 chain, part with V34M, T57K, A60S, H104S, M106S
As for B20, the Kd worked out at 6.6 nM.

B21: anti-DLL3 trispecific protein 2C04 (protein, part only; not given: anti-CD3 fragment and anti-albumin sdAb, part only)
chain, part: B1 chain, part with I31R, V34M, T57K, V58L, S102L, H104S
For the molecule B21, the Kd turned out to be 6.8 nM. The Kd values of the last two molecules are within 1.5-fold of each other.

B22: anti-DLL3 trispecific protein 2C07 (protein, part only; not given: anti-CD3 and anti-albumin domains, part only)
chain, part: B1 chain, part with V34M, G35A, T57K, T100S, H104S
Turning to B22, the Kd amounted to 6.2 nM.

B23: anti-DLL3 trispecific protein 2H04 (protein, part only; not given: anti-CD3 fragment and anti-albumin domain, part only)
chain, part: B1 chain, part with V34M, G55T, T57K, H104S, S105Y
B23 had a Kd of 6.3 nM.

B24: anti-DLL3 trispecific protein 2C06 (protein, part only; not given: CD3 binder and albumin binder, part only)
chain, part: B1 chain, part with S29N, V34M, T57K, A60K, F98Y, H104S
Regarding B24, the Kd came to 6.7 nM.

B25: anti-DLL3 trispecific protein 1H07 (protein, part only; not given: anti-CD3 fragment and anti-albumin sdAb, part only)
chain, part: B1 chain, part with V34F, T57K, A60S, H104S
Molecule B25 had a Kd of 6.2 nM.

B26: anti-DLL3 trispecific protein 1A03 (protein, part only; not given: CD3 fragment and albumin sdAb, part only)
chain, part: B1 chain, part with V34M, G35A, T57K, H104S, M106S
As for B26, the Kd came out at 6.3 nM.

B27: anti-DLL3 trispecific protein 2C09 (protein, part only; not given: anti-CD3 and anti-albumin domains, part only)
chain, part: EVQLVESGGGLVQPGGSLTLSCVPSGSTSNINAMGWYRRAPGKQRELPAGISSDGTKIYADSAKVPFTITRDNAKNSVYLQMNSLRAEDTAVYYCYYFRTVSGTSMRYWGQGTLVTVSSGGGGSGGGSGGGGSGGGSHHHHHH
In the case of B27, the Kd was determined as 6.4 nM.

B28: anti-DLL3 trispecific protein 4H04 (protein, part only; not given: anti-CD3 fragment and anti-albumin sdAb, part only)
chain, part: EVQLVESGGGLVQPGGSLTLSCAASGSSVKFLSMAWYRQAPGKKRELVAGVSADGSTDYIDSVKGRFTISRDNAKNSVYLQMNSLRAEDTAVYYCYAYEWTTRYTYWGQGTLVTVSSGGGGSGGGSGGGGSGGGSHHHHHH
On to B28, for which the Kd amounted to 6.1 nM.

B29: anti-DLL3 trispecific protein 4C03 (protein, part only; not given: CD3 fragment and albumin sdAb, part only)
chain, part: B28 chain, part with S28K, K30S, L32M, V51I, A53V, E99R, T101R
B29 registered a Kd of 6.6 nM.

B30: anti-DLL3 trispecific protein 4C02 (protein, part only; not given: CD3 fragment and albumin sdAb, part only)
chain, part: B28 chain, part with S28K, K30S, V51I, D58T, E99R, Y104F
Molecule B30 had a Kd of 6.8 nM.

B31: anti-DLL3 trispecific protein 4C010 (protein, part only; not given: CD3 binder and albumin binder, part only)
chain, part: B28 chain, part with S28K, K30S, L32M, V51I, E99R, Y104L
B31 gave a dissociation constant (Kd) of 7 nM.

B32: anti-DLL3 trispecific protein 4B02 (protein, part only; not given: CD3 binder and albumin binder, part only)
chain, part: B28 chain, part with S28R, K30S, V51I, D58T, E99R, Y104F
B32 came in with a dissociation constant Kd of 7.1 nM.

B33: anti-DLL3 trispecific protein 4C06 (protein, part only; not given: CD3 fragment and albumin sdAb, part only)
chain, part: B28 chain, part with G26N, K30S, F31K, V51I, D58A, E99R, T101S
Regarding B33, the Kd was determined as 6.8 nM.

B34: anti-DLL3 trispecific protein 3A011 (protein, part only; not given: CD3 binder and albumin binder, part only)
chain, part: B28 chain, part with K30S, M34L, V51I, A53T, E99R, T101R
For B34, the Kd was found to be 6.8 nM.

B35: anti-DLL3 trispecific protein 3F011 (protein, part only; not given: anti-CD3 and anti-albumin domains, part only)
chain, part: B28 chain, part with K30S, V51I, A53T, E99R, T101R
On to B35, for which the Kd came to 7.1 nM.

B36: anti-DLL3 trispecific protein 3A09 (protein, part only; not given: CD3 binder and albumin binder, part only)
chain, part: B28 chain, part with K30S, V51I, T57V, E99R, T105I
With B36, the Kd turned out to be 6.3 nM. The Kd values of the last two molecules are within 1.5-fold of each other.

B37: anti-DLL3 trispecific protein 4D05 (protein, part only; not given: anti-CD3 fragment and anti-albumin domain, part only)
chain, part: B28 chain, part with V29S, K30S, V51I, D58V, E99R, Y104R
B37 returned a Kd of 6.5 nM.

As a reminder, the Kd is the equilibrium constant for the complex coming apart.

The record behind these values is patent US20200095340A1.
